According to PMC4623440:

Target: human VEGF-A165 (human)

inhibition of VEGF-stimulated HUVEC growth (CellTiter-Glo): 2.1 nM
Substance: FcD2, monospecific fusion of hinge, Fc, linker and VEGFR1 D2 (from UniProt P17948 129-229) (Fc fusion)
